Each block holds one binder with its values, some of them ahead of it.
Legend:
human IL2Ra = molecular target: T1, human IL2Ra (human, UniProt P01589 22-240, limits assumed); assay: ELISA on coated IL2Ra, signal ratio to isotype control
T1 construct: coated on the ELISA plate; also called IL-2 receptor alpha
T1 sequence (looked up): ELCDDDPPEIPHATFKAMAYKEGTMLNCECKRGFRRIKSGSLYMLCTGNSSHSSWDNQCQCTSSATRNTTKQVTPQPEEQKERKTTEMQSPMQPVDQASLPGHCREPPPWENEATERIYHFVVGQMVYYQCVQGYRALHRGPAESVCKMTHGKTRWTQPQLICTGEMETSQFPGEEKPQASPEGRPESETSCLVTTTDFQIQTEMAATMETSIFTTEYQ
Method: IL2RA (Peprotech, Germany, #200-02RC) was coated at 1 or 0 μg/ml (buffer only control) in 30 μl coating buffer (Candor, #113500) per well on a 384 well microtiter plate (Maxisorb, Nunc, #460518) over night at 4-8° C. After two washes with 50 μl/well washing buffer (PBS+0.05% Tween, pH 7.4), the plates were incubated for two hours at room temperature with 50 μl/well SmartBlock (Candor, #113500). After blocking, the plates were washed three times with washing buffer. Then, a dilution series of the respective antibody (1E-7 [M] down to 2E-13 [M]) in PBS+0.05% Tween, 10% SmartBlock were added in 30 μl to the microtiter plate and incubated for 90 min at room temperature. After three additional washes, 30 μl anti mouse IgG HRP-conjugated antibody (Biotechne, HAF007), diluted 1:1000 in PBS+0.05% Tween (pH 7.4), were added per well and incubated for one hour. […] Relative fluorescence was measured with a microtiter plate reader at 535/590 nm.
Bispecific antibodies were subjected to the experimental assay procedure described in Example 20. Ratios of the signals generated at an antibody concentration of 1E-07 [M] by the respective bispecific antibody versus those of an isotype control antibody were calculated and are shown in Table E29. […]

murine IL-11 [1] = molecular target: T2, murine IL-11 (mouse, UniProt P47873 22-199); assay: Di-complex ELISA, murine IL11RA-Fc binding to immobilized mIL-11, competition
T2 construct: Invigate recombinant protein; biotinylated when immobilized in the Di-complex ELISA; also called mIL11; mIL-11
T2 sequence: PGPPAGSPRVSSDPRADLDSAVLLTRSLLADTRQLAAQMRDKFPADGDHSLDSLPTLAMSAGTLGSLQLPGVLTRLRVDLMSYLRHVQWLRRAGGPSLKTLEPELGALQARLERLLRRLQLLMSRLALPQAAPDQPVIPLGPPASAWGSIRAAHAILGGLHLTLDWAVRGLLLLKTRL
Method: In the Di-complex ELISA format anti IL-11 antibodies are tested for the ability to interfere with the formation of complexes consisting of immobilized murine IL-11 (Invigate, e.g., lot #C210819-09) or human IL-11 (Invigate, e.g., lot #C121021-19), and murine IL11RA-Fc fusion proteins or canine IL11RA-human-Fc fusion protein (FIG. 17a, b).
Bispecific antibodies were subjected to the experimental assay procedure described in Example 18 and IC50 [M], respectively efficacy (%) were calculated accordingly.

murine IL-11 [2] = molecular target: T3, murine IL-11 (mouse, UniProt P47873 22-199); assay: cell-based or functional assay
T3 sequence: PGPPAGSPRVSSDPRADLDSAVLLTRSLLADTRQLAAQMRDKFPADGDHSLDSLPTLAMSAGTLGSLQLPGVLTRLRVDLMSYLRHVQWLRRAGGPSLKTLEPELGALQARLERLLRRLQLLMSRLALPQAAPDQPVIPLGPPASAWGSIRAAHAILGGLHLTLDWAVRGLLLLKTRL

human IL-11 = molecular target: T4, human IL-11 (human, UniProt P20809 22-199); assay: cell-based or functional assay
T4 sequence: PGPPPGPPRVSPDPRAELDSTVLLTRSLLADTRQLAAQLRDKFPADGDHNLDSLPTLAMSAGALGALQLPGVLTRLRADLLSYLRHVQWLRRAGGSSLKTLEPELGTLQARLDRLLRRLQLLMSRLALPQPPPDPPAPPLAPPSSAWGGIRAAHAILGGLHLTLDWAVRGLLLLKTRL

cynomolgus IL-11 = molecular target: T5, cynomolgus IL-11 (cynomolgus, UniProt P20808 22-199); assay: SPR (Biacore), 25 C, antibody captured via anti-Fc, IL-11 as analyte
T5 construct: Invigate recombinant protein; also called cIL11; Macaca IL-11
T5 sequence: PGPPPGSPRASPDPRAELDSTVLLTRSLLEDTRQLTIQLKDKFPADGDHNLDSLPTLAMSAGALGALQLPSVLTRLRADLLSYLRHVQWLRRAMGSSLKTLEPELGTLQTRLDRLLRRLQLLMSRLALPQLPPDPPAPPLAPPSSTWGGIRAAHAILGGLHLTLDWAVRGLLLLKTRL
Method: (§1) To assess the binding kinetics and affinity of anti-IL-11 bispecific antibodies as well as their species cross-reactivity profile, binding assays were conducted using surface plasmon resonance (SPR). […] Antibodies were captured either via anti-human Fc IgGs (“Human antibody capture kit”, Order No. BR100839, Cytiva) or via anti-mouse Fc IgGs (“Mouse antibody capture kit, Order No. BR100383, Cytiva) covalently amine coupled to a Series S CM5 sensor chip (Cytiva) depending on the isotype. The amine coupling was carried out according to the manufacturer's instructions using 1-ethyl-3-(3-dimethylaminopropyl) carbodiimide hydrochloride (EDC), N-hydroxysuccinimide (NHS) and ethanolamine HCl, pH 8.5 (“Amine Coupling Kit” BR-1000-50, Cytiva.). Human, mouse, cynomolgus or rat IL-11 was used as analyte at several dilutions within the concentration range from 0.05-200 nM. For binding assays with only one concentration 200 nM IL-11 was used. The sensor surface was regenerated with glycine pH 1.7 after each antigen injection. Obtained sensorgrams were double referenced (subtraction of reference flow cell signal and buffer injection) and were fitted to a 1:1 Langmuir binding model to derive kinetic data using the Biacore T200 Evaluation software or the Biacore Insight software.
(§2) If no value is reported, there was either no binding or very low binding and multiphasic binding behavior.

rat IL-11 = molecular target: T6, rat IL-11 (rat, UniProt Q99MF5 22-199); assay: as above
T6 construct: Invigate recombinant protein; also called rIL11
T6 sequence: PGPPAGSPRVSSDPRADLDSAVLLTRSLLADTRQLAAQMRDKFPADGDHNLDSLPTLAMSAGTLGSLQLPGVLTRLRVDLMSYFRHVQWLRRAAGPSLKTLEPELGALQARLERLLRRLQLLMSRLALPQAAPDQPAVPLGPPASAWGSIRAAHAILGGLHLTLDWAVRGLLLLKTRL
Method: as §1, §2

murine IL-11 [3] = molecular target: T2, murine IL-11; assay: as above
Method: as §1, §2

binding result (human IL2Ra): no binding (tested: 1E-07 M antibody) | IC50 (murine IL-11 [1]): 1.4 nM
B1: TPP-29697 (bispecific antibody, IgG1)
chain 1: QVQLVESGGGVVQPGRSLRLSCAASGFTFSHYDMHWVRQAPGKGLEWVAVISYHGSVKFYADSVKGRFTISRDNSKNTLYLQMNSLRAEDTAVYYCARTPGFHFDYWGQGTLVTVSSGGGGSGGGGSGGGGSQSVLTQPPSASGTPGQRVTISCSGSSSNIGSNYVSWYQQLPGTAPKLLIYYDDLRPSGVPDRFSGSKSGTSASLAISGLRSEDEADYYCSAWDDSLSGVVFGGGTKLTVLGGGGSGGGGSGGGGSGVECPPCPAPPVAGPSVFLFPPKPKDTLMISRTPEVTCVVVGVSHEDPEVKFNWYVDGVEVHNAKTKPREEQYNSTYRVVSVLTVLHQDWLNGKEYKCKVSNKQLPSPIEKTISKAKGQPREPQVYTLPPCRDELTKNQVSLWCLVKGFYPSDIAVEWESNGQPENNYKTTPPVLDSDGSFFLYSKLTVDKSRWQQGNVFSCSVMHEALHNHYTQKSLSLSPGK
chain 2: EVQLLESGGGLVQPGGSLRLSCAASGFTFSSYGMHWVRQAPGKGLEWVAVISYDGSYKYYADSVKGRFTISRDNSKNTLYLQMNSLRAEDTAVYYCAAGVPDYWGQGTLVTVSSGGGGSGGGGSGGGGSQSVLTQPPSASGTPGQRVTISCSGSSSNIGSDYDVHWYQQLPGTAPKLLIYSNEERPSGVPDRFSGSKSGTSASLAISGLRSEDEADYYCSAWDSSLSGPVFGGGTKLTVLGGGGSGGGGSGGGGSGVECPPCPAPPVAGPSVFLFPPKPKDTLMISRTPEVTCVVVGVSHEDPEVKFNWYVDGVEVHNAKTKPREEQYNSTYRVVSVLTVLHQDWLNGKEYKCKVSNKQLPSPIEKTISKAKGQPREPQVCTLPPSRDELTKNQVSLSCAVKGFYPSDIAVEWESNGQPENNYKTTPPVLDSDGSFFLVSKLTVDKSRWQQGNVFSCSVMHEALHNHYTQKSLSLSPGK
notes: scFv-kih-hIgG1 with Fc-silencing mutations; bispecific comprising CDRs of TPP-29528 and TPP-29519

Kd (cynomolgus IL-11): 3.8 nM | Kd (rat IL-11): 0.29 nM | Kd (murine IL-11 [3]): 0.35 nM
B3: TPP-18068 (antibody, mouse IgG1)
heavy: EVQLLESGGGLVQPGGSLRLSCAASGFTFSSYGMHWVRQAPGKGLEWVSVISYDGSYKYYADSVKGRFTISRDNSKNTLYLQMNSLRAEDTAVYYCAAGVPDYWGQGTLVTVSSAKTTPPSVYPLAPGSAAQTNSMVTLGCLVKGYFPEPVTVTWNSGSLSSGVHTFPAVLQSDLYTLSSSVTVPSSTWPSETVTCNVAHPASSTKVDKKIVPRDCGCKPCICTVPEVSSVFIFPPKPKDVLTITLTPKVTCVVVDISKDDPEVQFSWFVDDVEVHTAQTQPREEQFNSTFRSVSELPIMHQDWLNGKEFKCRVNSAAFPAPIEKTISKTKGRPKAPQVYTIPPPKEQMAKDKVSLTCMITDFFPEDITVEWQWNGQPAENYKNTQPIMDTDGSYFVYSKLNVQKSNWEAGNTFTCSVLHEGLHNHHTEKSLSHSPGK
light: QSVLTQPPSASGTPGQRVTISCTGSSSNIGAGYDVHWYQQLPGTAPKLLIYSNNERPSGVPDRFSGSKSGTSASLAISGLRSEDEADYYCAAWDDSLNGPVFGGGTKLTVLGQPKSSPSVTLFPPSSEELETNKATLVCTITDFYPGVVTVDWKVDGTPVTQGMETTQPSKQSNNKYMASSYLTLTARAWERHSSYSCQVTHEGHTVEKSLSRADCS
notes: mIgG1, Lambda

Second part, the binder before the results:

B2: TPP-18068 (antibody, mouse IgG1)
heavy: EVQLLESGGGLVQPGGSLRLSCAASGFTFSSYGMHWVRQAPGKGLEWVSVISYDGSYKYYADSVKGRFTISRDNSKNTLYLQMNSLRAEDTAVYYCAAGVPDYWGQGTLVTVSSAKTTPPSVYPLAPGSAAQTNSMVTLGCLVKGYFPEPVTVTWNSGSLSSGVHTFPAVLQSDLYTLSSSVTVPSSTWPSETVTCNVAHPASSTKVDKKIVPRDCGCKPCICTVPEVSSVFIFPPKPKDVLTITLTPKVTCVVVDISKDDPEVQFSWFVDDVEVHTAQTQPREEQFNSTFRSVSELPIMHQDWLNGKEFKCRVNSAAFPAPIEKTISKTKGRPKAPQVYTIPPPKEQMAKDKVSLTCMITDFFPEDITVEWQWNGQPAENYKNTQPIMDTDGSYFVYSKLNVQKSNWEAGNTFTCSVLHEGLHNHHTEKSLSHSPGK
light: QSVLTQPPSASGTPGQRVTISCTGSSSNIGAGYDVHWYQQLPGTAPKLLIYSNNERPSGVPDRFSGSKSGTSASLAISGLRSEDEADYYCAAWDDSLNGPVFGGGTKLTVLGQPKSSPSVTLFPPSSEELETNKATLVCTITDFYPGVVTVDWKVDGTPVTQGMETTQPSKQSNNKYMASSYLTLTARAWERHSSYSCQVTHEGHTVEKSLSRADCS
notes: mIgG1, Lambda
RGA Efficacy (%) (murine IL-11 [2]): 93.1% | RGA IC50 (murine IL-11 [2]): 1 nM | RGA Efficacy (%) (human IL-11): 60.3% | RGA IC50 (human IL-11): 6.7 nM

B4: TPP-29603 (bispecific antibody, IgG1)
chain 1: QVQLVESGGGVVQPGRSLRLSCAASGFTFSHYDMHWVRQAPGKGLEWVAVISYHGSVKFYADSVKGRFTISRDNSKNTLYLQMNSLRAEDTAVYYCARTPGFHFDYWGQGTLVTVSSGGGGSGGGGSGGGGSQSVLTQPPSASGTPGQRVTISCSGSSSNIGSNYVSWYQQLPGTAPKLLIYYDDLRPSGVPDRFSGSKSGTSASLAISGLRSEDEADYYCSAWDDSLSGVVFGGGTKLTVLGGGGSGGGGSGGGGSGVECPPCPAPPVAGPSVFIFPPKPKDVLTITLTPKVTCVVVDISKDDPEVQFSWFVDDVEVHTAQTQPREEQFNSTFRSVSELPIMHQDWLNGKEFKCRVNSAAFPAPIEKTISKTKGRPKAPQVYTIPPCKEQMAKDKVSLWCMITDFFPEDITVEWQWNGQPAENYKNTQPIMDTDGSYFVYSKLNVQKSNWEAGNTFTCSVLHEGLHNHHTEKSLSHSPGK
chain 2: EVQLLESGGGLVQPGGSLRLSCAASGFTFSSYGMHWVRQAPGKGLEWVAVISYDGSYKYYADSVKGRFTISRDNSKNTLYLQMNSLRAEDTAVYYCAAGVPDYWGQGTLVTVSSGGGGSGGGGSGGGGSQSVLTQPPSASGTPGQRVTISCSGSSSNIGSDYDVHWYQQLPGTAPKLLIYSNEERPSGVPDRFSGSKSGTSASLAISGLRSEDEADYYCSAWDSSLSGPVFGGGTKLTVLGGGGSGGGGSGGGGSGVECPPCPAPPVAGPSVFIFPPKPKDVLTITLTPKVTCVVVDISKDDPEVQFSWFVDDVEVHTAQTQPREEQFNSTFRSVSELPIMHQDWLNGKEFKCRVNSAAFPAPIEKTISKTKGRPKAPQVCTIPPPKEQMAKDKVSLSCAITDFFPEDITVEWQWNGQPAENYKNTQPIMDTDGSYFVVSKLNVQKSNWEAGNTFTCSVLHEGLHNHHTEKSLSHSPGK
notes: scFv-kih-mIgG1; bispecific comprising CDRs of TPP-29528 and TPP-29519
binding result (human IL2Ra): no binding (tested: 1E-07 M antibody)

Reference: patent US20240317847A1 (Bayer, published 2024)
